{"source": "patent US20150166611A1", "key": {"[1]": {"target": "HIV-1 Env (NL4-3) labeled with Cy3 at the LV4-2-A1 loop insertion, on virions (HIV-1 NL4-3)", "assay": "intermolecular smFRET; high-FRET state assigned to CD4 bound to the Cy3-labelled gp120"}, "[2]": {"target": "wild-type HIV-1NL4-3 Env (unlabeled gp120 protomers of the trimer on virions) (HIV-1 NL4-3)", "assay": "intermolecular smFRET; CD4 bound to an unlabeled gp120 of the trimer, donor Cy3 on the neighbouring labelled gp120"}}}
{"substance": "Cy5-labeled soluble CD4(C92) (D1-D2) (from UniProt P01730 26-208) (receptor)", "values": [{"measurement": "FRET state (high) (FRET efficiency)", "setting": "[1]", "result": 0.85}, {"measurement": "FRET state (intermediate) (FRET efficiency)", "setting": "[2]", "result": 0.3}, {"measurement": "FRET state (low) (FRET efficiency)", "setting": "[2]", "result": 0.2}]}
